Measured values as given in patent US20140227295A1 (Bristol-Myers Squibb, published 2014).

Molecular target: mesothelin (UniProt Q13421 37-598, limits assumed)
Assay: cell-based or functional assay

Sequence of mesothelin (Q13421 other isoform, or with tags, fused parts or gaps limits assumed): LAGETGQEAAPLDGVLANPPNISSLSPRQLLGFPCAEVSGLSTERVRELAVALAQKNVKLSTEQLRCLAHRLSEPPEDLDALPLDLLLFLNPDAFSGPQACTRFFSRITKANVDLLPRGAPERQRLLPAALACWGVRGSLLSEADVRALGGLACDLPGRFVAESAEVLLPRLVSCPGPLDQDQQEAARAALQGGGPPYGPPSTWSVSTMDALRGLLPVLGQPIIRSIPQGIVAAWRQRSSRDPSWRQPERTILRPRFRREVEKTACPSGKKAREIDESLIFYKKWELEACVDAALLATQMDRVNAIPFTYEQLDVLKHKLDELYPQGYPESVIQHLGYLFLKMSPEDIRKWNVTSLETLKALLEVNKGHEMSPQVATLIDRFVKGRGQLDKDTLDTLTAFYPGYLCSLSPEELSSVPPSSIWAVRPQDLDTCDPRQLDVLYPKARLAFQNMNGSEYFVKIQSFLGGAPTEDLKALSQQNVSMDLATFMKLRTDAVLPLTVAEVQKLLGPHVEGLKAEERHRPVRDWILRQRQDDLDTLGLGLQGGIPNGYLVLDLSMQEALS

B1: conjugate (II-1), a conjugate of compound (III-1) and the anti-mesothelin antibody 6A4 (antibody, V domains shown)
VH: QVHLVESGGGVVQPGRSLRLSCVASGITFRIYGMHWVRQAPGKGLEWVAVLWYDGSHEYYADSVKGRFTISRDNSKNTLYLQMNSLRAEDTAIYYCARDGDYYDSGSPLDYWGQGTLVTVSS
VL: EIVLTQSPATLSLSPGERATLSCRASQSVSSYLAWYQQKPGQAPRLLIYDASNRATGIPARFSGSGSGTDFTLTISSLEPEDFAVYYCQQRSNWPLTFGGGTKVEIK
modifications: lysine ε-amino groups thiolated with 2-iminothiolane and linked to the maleimide of tubulysin drug-linker compound (III-1); sites and chain not stated
With B1 the “EC50, inhibition of proliferation of N87 gastric cancer cells (3H thymidine incorporation assay)” value was 0.2 nM.
